Test results taken from US20250368754A1 (KANAPH THERAPEUTICS, published 2025).

T1: recombinant human herpes virus entry mediator (HVEM) (human, UniProt Q92956 39-202)
T1 construct: neither construct is described; also called human HVEM; recombinant human HVEM protein (R&D systems)
T1 sequence (looked up): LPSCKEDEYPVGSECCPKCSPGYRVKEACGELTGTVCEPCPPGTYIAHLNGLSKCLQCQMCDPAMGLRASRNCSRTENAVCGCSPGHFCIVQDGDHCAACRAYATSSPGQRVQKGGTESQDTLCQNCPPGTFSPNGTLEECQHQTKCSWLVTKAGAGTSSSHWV

T2: human DcR3 (human, UniProt O95407 30-300)
T2 construct: also called LIGHT receptor DcR3
T2 sequence (looked up): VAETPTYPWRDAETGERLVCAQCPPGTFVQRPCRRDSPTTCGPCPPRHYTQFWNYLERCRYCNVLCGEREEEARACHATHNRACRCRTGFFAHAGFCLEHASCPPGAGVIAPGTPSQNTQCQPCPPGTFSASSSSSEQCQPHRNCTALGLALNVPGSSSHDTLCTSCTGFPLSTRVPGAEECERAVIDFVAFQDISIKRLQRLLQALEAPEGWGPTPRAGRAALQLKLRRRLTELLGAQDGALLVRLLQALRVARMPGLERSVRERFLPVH

T3: human FAP on HEK293-hFAP cells (human, UniProt Q12884 1-760)
T3 construct: whole, on cells; also called human FAP-expressing cell line
T3 sequence (looked up): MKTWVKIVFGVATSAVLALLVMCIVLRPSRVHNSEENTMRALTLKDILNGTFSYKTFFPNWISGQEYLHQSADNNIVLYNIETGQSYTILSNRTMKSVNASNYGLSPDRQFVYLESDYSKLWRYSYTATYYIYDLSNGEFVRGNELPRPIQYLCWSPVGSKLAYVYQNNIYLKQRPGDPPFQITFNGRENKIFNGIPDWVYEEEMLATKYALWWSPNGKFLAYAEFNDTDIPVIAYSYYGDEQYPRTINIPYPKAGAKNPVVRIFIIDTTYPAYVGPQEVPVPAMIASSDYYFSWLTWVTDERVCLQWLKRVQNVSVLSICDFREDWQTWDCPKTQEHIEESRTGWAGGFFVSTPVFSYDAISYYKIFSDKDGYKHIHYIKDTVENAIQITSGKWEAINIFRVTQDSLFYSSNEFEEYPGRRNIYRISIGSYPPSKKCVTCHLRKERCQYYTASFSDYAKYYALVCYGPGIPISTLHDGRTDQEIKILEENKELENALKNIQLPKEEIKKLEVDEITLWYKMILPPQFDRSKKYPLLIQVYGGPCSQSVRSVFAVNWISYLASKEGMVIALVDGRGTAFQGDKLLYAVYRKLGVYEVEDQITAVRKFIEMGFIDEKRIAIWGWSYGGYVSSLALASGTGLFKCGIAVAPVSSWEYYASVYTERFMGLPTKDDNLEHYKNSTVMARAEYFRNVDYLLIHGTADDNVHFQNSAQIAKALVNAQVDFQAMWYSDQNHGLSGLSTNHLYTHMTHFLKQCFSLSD


Tests used:
human LTβR on A375 cells [1] = target: T4, human LTβR on A375 cells (human, UniProt P36941 31-435); experiment: flow cytometry on A375 cells, serial dilution from 500 nM, anti-human IgG detection
T4 construct: whole, on cells; Endogenous receptor of a human cell line; also called LTβR expressing A375 cells; LTβR expressing cell line
T4 sequence (P36941 31-435): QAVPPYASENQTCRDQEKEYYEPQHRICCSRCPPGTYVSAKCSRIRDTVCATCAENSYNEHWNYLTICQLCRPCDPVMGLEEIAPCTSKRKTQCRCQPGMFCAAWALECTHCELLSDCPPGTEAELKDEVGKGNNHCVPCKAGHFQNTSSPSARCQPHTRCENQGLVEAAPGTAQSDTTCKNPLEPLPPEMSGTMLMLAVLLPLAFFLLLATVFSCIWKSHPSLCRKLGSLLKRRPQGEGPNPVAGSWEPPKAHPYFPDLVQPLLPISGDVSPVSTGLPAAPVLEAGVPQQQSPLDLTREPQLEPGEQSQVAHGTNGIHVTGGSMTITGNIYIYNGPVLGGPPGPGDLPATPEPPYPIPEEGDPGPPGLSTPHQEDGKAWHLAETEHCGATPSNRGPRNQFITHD
Protocol: Specifically, the A375 cell line was prepared by suspending in a FACS buffer solution at 1×10⁵ cells/100 μL, and treated with 100 μL each of T3.01, T3.07, T3.04, and T3.18 prepared by suspending at 500 nM and diluting by serial dilution. The cells were washed twice with a FACS buffer solution. The cells were stained with an anti-human IgG antibody (Biolegend). The expression ratio of the stained cells was measured using BD LSR and analyzed using FlowJo software.

[2] = target: T1, recombinant human herpes virus entry …; experiment: SPR, human HVEM immobilised on the chip (title: PRO121; 6ug/ml human HVEM pH5.5), T3.18 as analyte 0.78125-100 nM
Protocol: (§1) Specifically, the surface of the CM5 chip was activated with a 1:1 mixture of […], and 5 to 6 μg/mL of human HVEM was immobilized for 60 seconds at a rate of 10 μL/min. The remaining active ester groups were blocked with 1 M ethanolamine. T3.01, T3.07, T3.09, T3.14, and T3.18 were each diluted to 100 nM in 1×HBS-EP+buffer solution and diluted by serial dilution. The diluted fusion proteins were reacted at a rate of 30 μL/min. The association and dissociation times were 180 seconds and 400 seconds, respectively. After the dissociation step, stabilization was performed for 60 seconds, and then the regeneration step was performed for 30 seconds with a 10 mM glycine pH 1.5 solution at a rate of 30 μL/min.

human DcR3 = target: T2, human DcR3; experiment: SPR, human DcR3 immobilised on CM5, fusion protein as analyte, 1:1 binding model
Protocol: as §1, with “DcR3” for “HVEM”, “50 nM or 200” for “100”

[3] = target: T5, recombinant human lymphotoxin beta receptor (LTβR) (human, UniProt P36941 28-227, limits assumed); experiment: SPR, human LTβR immobilised on CM5, fusion protein as analyte, 1:1 binding model
T5 construct: neither construct is described; also called human LTβR; recombinant human LTβR protein
T5 sequence (P36941 28-227 limits assumed): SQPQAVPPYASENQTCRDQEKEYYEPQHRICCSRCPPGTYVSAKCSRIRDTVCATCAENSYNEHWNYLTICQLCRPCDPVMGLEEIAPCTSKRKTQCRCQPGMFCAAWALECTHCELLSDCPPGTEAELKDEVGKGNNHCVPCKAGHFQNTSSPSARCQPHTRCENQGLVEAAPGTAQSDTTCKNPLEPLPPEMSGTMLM
Protocol: as §1, with “5” for “5 to 6”, “LTβR” for “HVEM”, “T3.01, T3.07, T3.09, T3.14, and T3.18 were each diluted to 100 nM in 1×HBS-EP+buffer solution and diluted by serial dilution.” left out

[4] = target: T3, human FAP on HEK293-hFAP cells; experiment: flow cytometry on HEK293-hFAP cells, 1 ug protein per 1x10^5 cells, anti-human IgG detection (axis TMEkine-PE)
Protocol: (§2) Specifically, the cell line was prepared by suspending in a FACS buffer solution at 1×10⁵ cells/100 μL, and treated with 1 μg each of T3.10, T3.01, T3.05, T3.06, T3.14, and T3.18. The cells were washed twice with a FACS buffer solution. The cells were stained with an anti-human IgG antibody (Biolegend). The negative control sample was stained only with an anti-human IgG antibody (Biolegend). The expression ratio of the stained cells was measured using BD LSR and analyzed using FlowJo software.

human LTβR on A375 cells [5] = target: T4, human LTβR on A375 cells; experiment: cell-based or functional assay
[6] = target: T3, human FAP on HEK293-hFAP cells; experiment: flow cytometry on HEK293-hFAP cells, 1 µg protein, anti-human IgG detection
Protocol: as §2

[7] = target: T5, recombinant human lymphotoxin beta …; experiment: sandwich ELISA: plate coated with recombinant human LTbR 1 ug/mL, fusion protein from 1 nM in serial dilution, detected with biotinylated recombinant human FAP and streptavidin conjugate, OD 450 nm
Protocol: (i) The recombinant human LTβR protein was suspended at 1 μg/mL, dispensed in a 96-well immune plate, and treated for 24 hours. [0380] (ii) The wells were washed with a wash solution, and then blocking was performed for 1 hour with 1% BSA (bovine serum albumin, Sigma) solution. [0381] (iii) The wells were washed with a wash solution, and then T3.01, T3.14, T3.16, T3.17, T3.18 and T3.10, or T3.05, T3.06, T3.04, T3.14 and T3.10 were suspended at 1 nM and diluted by serial dilution. The wells were treated with the diluted T3.01, T3.14, T3.16, T3.17, T3.18 and T3.10, or T3.05, T3.06, T3.04, T3.14 and T3.10 for 2 hours. […] (iv) The wells were washed with a wash solution, and then treated with the human recombinant FAP-biotin diluted at 0.5 μg/mL for 2 hours. [0383] (v) The wells were washed with a wash solution, and then treated with streptavidin-RP for 20 minutes. [0384] (vi) The wells were washed with a wash solution, and then treated with a substrate solution for 20 minutes. [0385] (vii) The wells were treated with a stop solution, and the absorbance was measured at 450 nm.

human LTβR on A375 cells [8] = target: T4, human LTβR on A375 cells; experiment: flow cytometry on A375 cells, anti-human IgG detection (axis TMEkine-PE); concentration not printed on the sheet
[9] = target: T1, recombinant human herpes virus entry …; experiment: sandwich ELISA: plate coated with recombinant human HVEM 1 ug/mL, fusion protein from 1 nM in serial dilution, detected with biotinylated recombinant human FAP and streptavidin conjugate, OD 450 nm
Protocol: Considering that LIGHT of the fusion protein must bind to the herpes virus entry mediator (HVEM) for the action, it was confirmed that T3.01 binds to the recombinant human HVEM, as follows: [0370] (i) The recombinant human HVEM protein (R&D systems) was suspended at 1 μg/mL, dispensed in a 96-well immune plate, and treated for 24 hours. [0371] (ii) The wells were washed with a wash solution, and then blocking was performed for 1 hour with 1% BSA (bovine serum albumin, Sigma) solution. [0372] (iii) The wells were washed with a wash solution, and then T3.01, T3.14, T3.16, T3.17, T3.18 and T3.10, or T3.05, T3.06, T3.04, T3.14 and T3.10 were suspended at 1 nM and diluted by serial dilution. The wells were treated with the diluted T3.01, T3.14, T3.16, T3.17, T3.18 and T3.10, or T3.05, T3.06, T3.04, T3.14 and T3.10 for 2 hours. [0373] (iv) The wells were washed with a wash solution, and then treated with the human recombinant FAP-biotin diluted at 0.5 μg/mL for 2 hours. [0374] (v) The wells were washed with a wash solution, and then treated with streptavidin-RP for 20 minutes. [0375] (vi) The wells were washed with a wash solution, and then treated with a substrate solution for 20 minutes. [0376] (vii) The wells were treated with a stop solution, and the absorbance was measured at 450 nm.

Row | Binder | percent of cells bound (human LTβR on A375 cells [1]) | binding result [2] | Kd (human DcR3) | koff (human DcR3) | kon (human DcR3) | Kd [3] | koff [3] | kon [3] | percent of cells in the positive gate [4] | IL-8 secretion of A375 cells, EC50 (FIG. 15b) (human LTβR on A375 cells [5]) | percent of cells bound [6] | binding result [7] | binding result (human LTβR on A375 cells [8]) | binding result [9]
1 | T3.18 (anti-hu FAP/hu scLIGHT(GGSG)-LTb2, hu IgG1 DANG) (bispecific antibody, Knob-into-hole; LIGHT-LTb2 heterotrimer with GGSG linker after LIGHT) heavy: QVQLVQSGAEVKKPGASVKVSCKTSRYTFTEYTIHWVRQAPGQRLEWIGGINPNNGIPNYNQKFKGRVTITVDTSASTAYMELSSLRSEDTAVYYCARRRIAYGYDEGHAMDYWGQGTLVTVSSASTKGPSVFPLAPSSKSTSGGTAALGCLVKDYFPEPVTVSWNSGALTSGVHTFPAVLQSSGLYSLSSVVTVPSSSLGTQTYICNVNHKPSNTKVDKKVEPKSCDKTHTCPPCPAPELLGGPSVFLFPPKPKDTLMISRTPEVTCVVVAVSHEDPEVKFNWYVDGVEVHNAKTKPREEQYGSTYRVVSVLTVLHQDWLNGKEYKCKVSNKALPAPIEKTISKAKGQPREPQVYTLPPSRDELTKNQVSLWCLVKGFYPSDIAVEWESNGQPENNYKTTPPVLDSDGSFFLYSKLTVDKSRWQQGNVFSCSVMHEALHNHYTQKSLSLSPGK light: not shown not shown | ≥ 96% | no binding (tested: 100 nM) | 7.93 nM | 0.0017 s⁻¹ | 214000 M⁻¹ s⁻¹ | 0.245 nM | 0.000315 s⁻¹ | 1.29e+06 M⁻¹ s⁻¹ | 99.8% | 0.0778 nM | ≥ 99% |  |  | 
2 | T3.10 (anti-hu FAP/null, hu IgG1 DANG) (antibody, One-armed anti-FAP knob-into-hole antibody without LIGHT; used as the control for LIGHT activity) heavy: QVQLVQSGAEVKKPGASVKVSCKTSRYTFTEYTIHWVRQAPGQRLEWIGGINPNNGIPNYNQKFKGRVTITVDTSASTAYMELSSLRSEDTAVYYCARRRIAYGYDEGHAMDYWGQGTLVTVSSASTKGPSVFPLAPSSKSTSGGTAALGCLVKDYFPEPVTVSWNSGALTSGVHTFPAVLQSSGLYSLSSVVTVPSSSLGTQTYICNVNHKPSNTKVDKKVEPKSCDKTHTCPPCPAPELLGGPSVFLFPPKPKDTLMISRTPEVTCVVVAVSHEDPEVKFNWYVDGVEVHNAKTKPREEQYGSTYRVVSVLTVLHQDWLNGKEYKCKVSNKALPAPIEKTISKAKGQPREPQVYTLPPSRDELTKNQVSLWCLVKGFYPSDIAVEWESNGQPENNYKTTPPVLDSDGSFFLYSKLTVDKSRWQQGNVFSCSVMHEALHNHYTQKSLSLSPGK light: not shown not shown |  |  |  |  |  |  |  |  | 99.3% |  | ≥ 99% | no binding (tested: 1000 pM) | no binding | no binding (tested: 1000 pM)
